According to the supplement of paper PMC9112550, “Optimization of the antimicrobial peptide Bac7 by deep mutational scanning” (BMC Biology, 2022):

system: Escherichia coli TOP10; assay: shrunken log2 fold change of peptide-encoding DNA abundance (4.5 h post-induction vs induction); higher = less antimicrobial activity (less host growth inhibition); conditions: time post-induction: 4.5 h; library: site-saturation at positions 5, 18, 19, 20
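Further: peptides expressed intracellularly from a pBAD plasmid library in pooled LB shake-flask culture, induced with 0.3% L-arabinose, DNA abundance read by NGS, three biological replicates, DESeq2 with apeglm shrinkage.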

Sequence | shrunken log2 fold change
RRIRGRPPRLPRPRPRPTTSPRP | 1.11
RRIRGRPPRLPRPRPRPTVFPRP | 0.993
RRIRGRPPRLPRPRPRPTVGPRP | 0.832
RRIRGRPPRLPRPRPRPTVRPRP | 0.452
RRIRGRPPRLPRPRPRPTVSPRP | 0.731
RRIRGRPPRLPRPRPRPTVWPRP | 1.32
RRIRGRPPRLPRPRPRPTWSPRP | 0.977
RRIRGRPPRLPRPRPRPVAFPRP | 0.722
RRIRGRPPRLPRPRPRPVARPRP | 0.58
RRIRGRPPRLPRPRPRPVDHPRP | 0.193
RRIRGRPPRLPRPRPRPVDKPRP | 0.319
RRIRGRPPRLPRPRPRPVEQPRP | 0.0754
RRIRGRPPRLPRPRPRPVFKPRP | 0.193
RRIRGRPPRLPRPRPRPVFLPRP | -0.0506
RRIRGRPPRLPRPRPRPVGEPRP | 1.23
RRIRGRPPRLPRPRPRPVGGPRP | 0.897
RRIRGRPPRLPRPRPRPVGPPRP | 0.762
RRIRGRPPRLPRPRPRPVIAPRP | 0.506
RRIRGRPPRLPRPRPRPVIPPRP | 0.000617
RRIRGRPPRLPRPRPRPVKNPRP | 0.554
RRIRGRPPRLPRPRPRPVLAPRP | 0.773
RRIRGRPPRLPRPRPRPVLYPRP | 0.069
RRIRGRPPRLPRPRPRPVMCPRP | 0.522
RRIRGRPPRLPRPRPRPVNKPRP | 0.0892
RRIRGRPPRLPRPRPRPVPRPRP | 0.806

Sequence | shrunken log2 fold change
RRIRGRPPRLPRPRPRPVQCPRP | 0.102
RRIRGRPPRLPRPRPRPVQQPRP | 0.515
RRIRGRPPRLPRPRPRPVQSPRP | 0.689
RRIRGRPPRLPRPRPRPVQYPRP | 0.118
RRIRGRPPRLPRPRPRPVRDPRP | 0.401
RRIRGRPPRLPRPRPRPVSGPRP | 0.731
RRIRGRPPRLPRPRPRPVSNPRP | 0.568
RRIRGRPPRLPRPRPRPVSPPRP | 0.101
RRIRGRPPRLPRPRPRPVWCPRP | 0.245
RRIRGRPPRLPRPRPRPVWHPRP | 0.228
RRIRGRPPRLPRPRPRPVWPPRP | 0.947
RRIRGRPPRLPRPRPRPVWRPRP | 1.21
RRIRGRPPRLPRPRPRPWCWPRP | 0.682
RRIRGRPPRLPRPRPRPWDYPRP | 0.183
RRIRGRPPRLPRPRPRPWEHPRP | -0.000921
RRIRGRPPRLPRPRPRPWEIPRP | 0.361
RRIRGRPPRLPRPRPRPWERPRP | 0.0531
RRIRGRPPRLPRPRPRPWEVPRP | 0.0273
RRIRGRPPRLPRPRPRPWHIPRP | -0.111
RRIRGRPPRLPRPRPRPWHPPRP | 0.49
RRIRGRPPRLPRPRPRPWICPRP | -0.00439
RRIRGRPPRLPRPRPRPWIGPRP | 0.0233
RRIRGRPPRLPRPRPRPWLEPRP | 0.303
RRIRGRPPRLPRPRPRPWLKPRP | -0.24
RRIRGRPPRLPRPRPRPWMAPRP | 0.439

Sequence | shrunken log2 fold change
RRIRGRPPRLPRPRPRPWMSPRP | 0.0647
RRIRGRPPRLPRPRPRPWRQPRP | 0.0568
RRIRGRPPRLPRPRPRPWSKPRP | -0.423
RRIRGRPPRLPRPRPRPWSSPRP | -0.0552
RRIRGRPPRLPRPRPRPWTSPRP | 0.0439
RRIRGRPPRLPRPRPRPWVYPRP | -0.0165
RRIRGRPPRLPRPRPRPWWSPRP | 0.00664
RRIRGRPPRLPRPRPRPWYDPRP | -0.929
RRIRGRPPRLPRPRPRPWYTPRP | -0.225
RRIRGRPPRLPRPRPRPYAIPRP | -0.0622
RRIRGRPPRLPRPRPRPYAMPRP | 0.451
RRIRGRPPRLPRPRPRPYCRPRP | -0.237
RRIRGRPPRLPRPRPRPYCTPRP | -0.0267
RRIRGRPPRLPRPRPRPYDIPRP | -0.068
RRIRGRPPRLPRPRPRPYDMPRP | -0.0187
RRIRGRPPRLPRPRPRPYDPPRP | -0.0783
RRIRGRPPRLPRPRPRPYDRPRP | 0.136
RRIRGRPPRLPRPRPRPYFRPRP | 0.0786
RRIRGRPPRLPRPRPRPYGQPRP | 0.0682
RRIRGRPPRLPRPRPRPYHTPRP | -0.779
RRIRGRPPRLPRPRPRPYIRPRP | -0.111
RRIRGRPPRLPRPRPRPYKNPRP | -0.22
RRIRGRPPRLPRPRPRPYKWPRP | -0.0702
RRIRGRPPRLPRPRPRPYLMPRP | -0.0538
RRIRGRPPRLPRPRPRPYLTPRP | -0.0518

Sequence | shrunken log2 fold change
RRIRGRPPRLPRPRPRPYMKPRP | -0.493
RRIRGRPPRLPRPRPRPYNKPRP | -0.593
RRIRGRPPRLPRPRPRPYNRPRP | 0.00858
RRIRGRPPRLPRPRPRPYPHPRP | 0.103
RRIRGRPPRLPRPRPRPYQDPRP | 0.0178
RRIRGRPPRLPRPRPRPYQYPRP | -0.0692
RRIRGRPPRLPRPRPRPYRHPRP | 0.161
RRIRGRPPRLPRPRPRPYRNPRP | -0.39
RRIRGRPPRLPRPRPRPYTPPRP | -0.526
RRIRHRPPRLPRPRPRPAACPRP | 0.066
RRIRHRPPRLPRPRPRPAAQPRP | -0.0888
RRIRHRPPRLPRPRPRPACFPRP | -0.126
RRIRHRPPRLPRPRPRPADEPRP | 0.0084
RRIRHRPPRLPRPRPRPADHPRP | 0.134
RRIRHRPPRLPRPRPRPADMPRP | 0.0208
RRIRHRPPRLPRPRPRPADWPRP | 0.0838
RRIRHRPPRLPRPRPRPAELPRP | -0.00261
RRIRHRPPRLPRPRPRPAFDPRP | -0.00345
RRIRHRPPRLPRPRPRPAGFPRP | -0.207
RRIRHRPPRLPRPRPRPAGVPRP | 0.141
RRIRHRPPRLPRPRPRPAHRPRP | 0.162
RRIRHRPPRLPRPRPRPAILPRP | -0.171
RRIRHRPPRLPRPRPRPAKDPRP | -0.0214
RRIRHRPPRLPRPRPRPALEPRP | -0.069
RRIRHRPPRLPRPRPRPAMWPRP | 0.00652

Sequence | shrunken log2 fold change
RRIRHRPPRLPRPRPRPANVPRP | -0.192
RRIRHRPPRLPRPRPRPAPPPRP | 0.854
RRIRHRPPRLPRPRPRPAQYPRP | -0.0609
RRIRHRPPRLPRPRPRPARFPRP | 0.358
RRIRHRPPRLPRPRPRPARTPRP | 0.19
RRIRHRPPRLPRPRPRPATFPRP | -0.662
RRIRHRPPRLPRPRPRPATYPRP | -0.501
RRIRHRPPRLPRPRPRPAVMPRP | -0.0305
RRIRHRPPRLPRPRPRPAYFPRP | -0.833
RRIRHRPPRLPRPRPRPAYIPRP | -0.00844
RRIRHRPPRLPRPRPRPAYSPRP | -0.000852
RRIRHRPPRLPRPRPRPAYWPRP | 2.61
RRIRHRPPRLPRPRPRPCAKPRP | -0.251
RRIRHRPPRLPRPRPRPCARPRP | -0.0479
RRIRHRPPRLPRPRPRPCCGPRP | -0.114
RRIRHRPPRLPRPRPRPCCHPRP | -0.707
RRIRHRPPRLPRPRPRPCCIPRP | -0.0109
RRIRHRPPRLPRPRPRPCCSPRP | -0.313
RRIRHRPPRLPRPRPRPCDDPRP | -0.0661
RRIRHRPPRLPRPRPRPCDEPRP | -0.0443
RRIRHRPPRLPRPRPRPCDFPRP | -0.0501
RRIRHRPPRLPRPRPRPCEIPRP | -0.171
RRIRHRPPRLPRPRPRPCETPRP | -0.332
RRIRHRPPRLPRPRPRPCFQPRP | -0.558
RRIRHRPPRLPRPRPRPCLEPRP | -0.0502

Sequence | shrunken log2 fold change
RRIRHRPPRLPRPRPRPCLFPRP | -0.229
RRIRHRPPRLPRPRPRPCLNPRP | -0.263
RRIRHRPPRLPRPRPRPCLYPRP | -0.057
RRIRHRPPRLPRPRPRPCMEPRP | -0.0962
RRIRHRPPRLPRPRPRPCNSPRP | -0.0938
RRIRHRPPRLPRPRPRPCQAPRP | -0.119
RRIRHRPPRLPRPRPRPCQPPRP | -0.0284
RRIRHRPPRLPRPRPRPCRRPRP | -0.131
RRIRHRPPRLPRPRPRPCWVPRP | -0.0013
RRIRHRPPRLPRPRPRPCYNPRP | -0.427
RRIRHRPPRLPRPRPRPDCFPRP | 0.3
RRIRHRPPRLPRPRPRPDCHPRP | 0.0149
RRIRHRPPRLPRPRPRPDCIPRP | -0.0444
RRIRHRPPRLPRPRPRPDCKPRP | -0.148
RRIRHRPPRLPRPRPRPDDYPRP | -0.00759
RRIRHRPPRLPRPRPRPDENPRP | -0.225
RRIRHRPPRLPRPRPRPDESPRP | 0.0491
RRIRHRPPRLPRPRPRPDFAPRP | -1.07
RRIRHRPPRLPRPRPRPDKAPRP | -0.468
RRIRHRPPRLPRPRPRPDKMPRP | -0.0794
RRIRHRPPRLPRPRPRPDMFPRP | -0.0749
RRIRHRPPRLPRPRPRPDNDPRP | 0.00849
RRIRHRPPRLPRPRPRPDRMPRP | -0.093
RRIRHRPPRLPRPRPRPDSNPRP | -0.0814
RRIRHRPPRLPRPRPRPDTPPRP | -0.0405
